Results from patent US20170233472A1 (MacroGenics, published 2017).
Residue numbers refer to the chain shown, from its start. Names may count otherwise.

B1: DART-2 (bispecific antibody)
chain 1: QLVLTQSPSASASLGSSVKLTCTLSSGHKTDTIDWYQQQPGKAPRYLMKLEGSGSYNKGSGVPDRFGSGSSSGADWYLTISSLQSEDEADYYCGTDYPGNYLFGGGTQLTVLGGGGSGGGGEVQLVESGGGLVQPGGSLRLSCAASGFTFSTYAMNWVRQAPGKGLEWVGRIRSKYNNYATYYADSVKGRFTISRDDSKNSLYLQMNSLKTEDTAVYYCVRHGNFGNSYVSWFAYWGQGTLVTVSSGGCGGGKVAALKEKVAALKEKVAALKEKVAALKE
chain 2: QAVVTQEPSLTVSPGGTVTLTCRSSTGAVTTSNYANWVQQKPGQAPRGLIGGTNKRAPWTPARFSGSLLGGKAALTITGAQAEDEADYYCALWYSNLWVFGGGTKLTVLGGGGSGGGGQEQLVESGGGLVQPGGSLRLSCAASGFTFSDYYMSWVRQAPGKGLEWVATIYPSSGKTYYADSVKGRFTISSDNAKNSLYLQMNSLRAEDTAVYYCARDSYADDAALFDIWGQGTTVTVSSGGCGGGEVAALEKEVAALEKEVAALEKEVAALEK
notes: ROR1×CD3 two chain diabody; VL(2): R71W; VH: parental
B2: DART-20 (bispecific antibody)
chain 1: B1 chain 1
chain 2: B1 chain 2 with A215T
notes: ROR1×CD3 two chain diabody; VL(2): R71W; VH(3): A93T
B3: DART-6 (bispecific antibody)
chain 1: B1 chain 1 with S70I, W76R
chain 2: B1 chain 2
notes: ROR1×CD3 two chain diabody; VL(6): S66I; VH: parental
B4: DART-13 (bispecific antibody)
chain 1: B1 chain 1 with S70I, Y97N
chain 2: B1 chain 2
notes: ROR1×CD3 two chain diabody; VL(13): S66I/R71W/Y92N; VH: parental
B5: DART-30 (bispecific antibody)
chain 1: B1 chain 1 with S70I
chain 2: B1 chain 2 with F186L, N195D, A215T
notes: ROR1×CD3 two chain diabody; VL(12): S66I/R71W; VH(7): F67L N76D A93T
B6: DART-12 (bispecific antibody)
chain 1: B1 chain 1 with S70I
chain 2: B1 chain 2
notes: ROR1×CD3 two chain diabody; VL(12): S66I/R71W; VH: parental
B7: DART-3 (bispecific antibody)
chain 1: B1 chain 1 with K49N, W76R
chain 2: B1 chain 2
notes: ROR1×CD3 two chain diabody; VL(3): K49N; VH: parental
B8: DART-10 (bispecific antibody)
chain 1: B1 chain 1 with W76R, Y97N
chain 2: B1 chain 2
notes: ROR1×CD3 two chain diabody; VL(10): Y92N; VH: parental
B9: DART-28 (bispecific antibody)
chain 1: B1 chain 1 with S70I, Y97N
chain 2: B1 chain 2 with A215T
notes: ROR1×CD3 two chain diabody; VL(13): S66I/R71W/Y92N; VH(3): A93T
B10: DART-31 (bispecific antibody)
chain 1: B1 chain 1 with S70I, Y97N
chain 2: B1 chain 2 with F186L, N195D, A215T
notes: ROR1×CD3 two chain diabody; VL(13): S66I/R71W/Y92N; VH(7): F67L/N76D/A93T
B11: DART-29 (bispecific antibody)
chain 1: B1 chain 1 with Y97N
chain 2: B1 chain 2 with F186L, N195D, A215T
notes: ROR1×CD3 two chain diabody; VL(11): R71W/Y92N; VH(7): F67L/N76D/A93T
B12: DART-27 (bispecific antibody)
chain 1: B1 chain 1 with S70I
chain 2: B1 chain 2 with A215T
notes: ROR1×CD3 two chain diabody; VL(12): S66I R71W; VH(3): A93T
B13: DART-21 (bispecific antibody)
chain 1: B1 chain 1 with S70I, W76R
chain 2: B1 chain 2 with A215T
notes: ROR1×CD3 two chain diabody; VL(6): S66I; VH(3): A93T
B14: DART-14 (bispecific antibody)
chain 1: B1 chain 1 with W76R
chain 2: B1 chain 2 with F186L
notes: ROR1×CD3 two chain diabody; VL: parental; VH(1): F67L
B15: DART-26 (bispecific antibody)
chain 1: B1 chain 1 with Y97N
chain 2: B1 chain 2 with A215T
notes: ROR1×CD3 two chain diabody; VL(11): R71W/Y92N; VH(3): A93T
B16: DART-17 (bispecific antibody)
chain 1: B1 chain 1 with W76R
chain 2: B1 chain 2 with N195Y
notes: ROR1×CD3 two chain diabody; VL: parental; VH(4): N76Y
B17: DART-5 (bispecific antibody)
chain 1: B1 chain 1 with N57S, W76R
chain 2: B1 chain 2
notes: ROR1×CD3 two chain diabody; VL(5): N54S; VH: parental
B18: DART-24 (bispecific antibody)
chain 1: B1 chain 1 with W76R, Y97N
chain 2: B1 chain 2 with A215T
notes: ROR1×CD3 two chain diabody; VL(10): Y92N; VH(3): A93T
B19: DART-4 (bispecific antibody)
chain 1: B1 chain 1 with S16G, W76R
chain 2: B1 chain 2
notes: ROR1×CD3 two chain diabody; VL(4): S17G; VH: parental
B20: DART-22 (bispecific antibody)
chain 1: B1 chain 1
chain 2: B1 chain 2 with F186L
notes: ROR1×CD3 two chain diabody; VL(2): R71W; VH(1): F67L
B21: DART-23 (bispecific antibody)
chain 1: B1 chain 1
chain 2: B1 chain 2 with N195D
B22: DART-11 (bispecific antibody)
chain 1: B1 chain 1 with Y97N
chain 2: B1 chain 2
notes: ROR1×CD3 two chain diabody; VL(11): R71W/Y92N; VH: parental
B23: DART-25 (bispecific antibody)
chain 1: B1 chain 1
chain 2: B1 chain 2 with F186L, N195D, A215T
notes: ROR1×CD3 two chain diabody
B24: DART-33 (bispecific antibody)
chain 1: QLVLTQSPSASASLGSSVKLTCTLSSGHKTDTIDWYQQQPGKAPRYLMKLEGSGSYNKGSGVPDRFSGSSSGADWYLTISSLQSEDEADYYCGTDYPGNYLFGGGTQLTVLGGGGSGGGGEVQLVESGGGLVQPGGSLRLSCAASGFTFSTYAMNWVRQAPGKGLEWVGRIRSKYNNYATYYADSVKGRFTISRDDSKNSLYLQMNSLKTEDTAVYYCVRHGNFGNSYVSWFAYWGQGTLVTVSSGGCGGGKVAALKEKVAALKEKVAALKEKVAALKE
chain 2: B1 chain 2 with V155I, V182A, F186L, N195D, A215T
notes: ROR1×CD3 two chain diabody
B25: DART-16 (bispecific antibody)
chain 1: B1 chain 1 with W76R
chain 2: B1 chain 2 with A215T
notes: ROR1×CD3 two chain diabody; VL: parental; VH(3): A93T

Experiments:
[1] = target: T1, His-tagged soluble human ROR1 (shROR1-His) (human, UniProt Q01973 30-406); test: SPR (Biacore), diabody captured via anti-E/K-coil, shROR1-His as analyte
T1 construct: also called ROR1 protein; immobilized ROR1; not shown: His-Tag
T1 sequence (Q01973 30-406): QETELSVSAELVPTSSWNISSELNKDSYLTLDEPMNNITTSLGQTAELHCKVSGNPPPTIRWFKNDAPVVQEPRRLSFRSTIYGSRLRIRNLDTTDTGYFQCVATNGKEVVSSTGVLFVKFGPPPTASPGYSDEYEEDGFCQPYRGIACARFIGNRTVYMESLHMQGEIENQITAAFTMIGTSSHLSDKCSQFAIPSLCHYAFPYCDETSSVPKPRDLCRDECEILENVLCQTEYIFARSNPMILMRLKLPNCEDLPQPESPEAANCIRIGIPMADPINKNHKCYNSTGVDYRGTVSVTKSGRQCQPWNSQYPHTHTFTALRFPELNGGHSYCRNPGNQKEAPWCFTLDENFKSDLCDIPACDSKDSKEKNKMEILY
Description: The binding kinetics of DART-1 to DART-6, DART-10 to DART-17, DART-20 to DART-33 was investigated using Biacore analysis in which ROR1 protein was passed over immobilized diabodies. Briefly, each diabody construct was captured on immobilized anti-E/K-coil surface and was incubated with shROR1-His at 25 and 100 nM, and the kinetics of binding were determined via Biacore analysis.

[2] = target: human ROR1 expressed on the surface of cancer cells (human, UniProt Q01973 30-937); test: cell-based or functional assay
Sequence of human ROR1 expressed on the surface of cancer cells (Q01973 30-937): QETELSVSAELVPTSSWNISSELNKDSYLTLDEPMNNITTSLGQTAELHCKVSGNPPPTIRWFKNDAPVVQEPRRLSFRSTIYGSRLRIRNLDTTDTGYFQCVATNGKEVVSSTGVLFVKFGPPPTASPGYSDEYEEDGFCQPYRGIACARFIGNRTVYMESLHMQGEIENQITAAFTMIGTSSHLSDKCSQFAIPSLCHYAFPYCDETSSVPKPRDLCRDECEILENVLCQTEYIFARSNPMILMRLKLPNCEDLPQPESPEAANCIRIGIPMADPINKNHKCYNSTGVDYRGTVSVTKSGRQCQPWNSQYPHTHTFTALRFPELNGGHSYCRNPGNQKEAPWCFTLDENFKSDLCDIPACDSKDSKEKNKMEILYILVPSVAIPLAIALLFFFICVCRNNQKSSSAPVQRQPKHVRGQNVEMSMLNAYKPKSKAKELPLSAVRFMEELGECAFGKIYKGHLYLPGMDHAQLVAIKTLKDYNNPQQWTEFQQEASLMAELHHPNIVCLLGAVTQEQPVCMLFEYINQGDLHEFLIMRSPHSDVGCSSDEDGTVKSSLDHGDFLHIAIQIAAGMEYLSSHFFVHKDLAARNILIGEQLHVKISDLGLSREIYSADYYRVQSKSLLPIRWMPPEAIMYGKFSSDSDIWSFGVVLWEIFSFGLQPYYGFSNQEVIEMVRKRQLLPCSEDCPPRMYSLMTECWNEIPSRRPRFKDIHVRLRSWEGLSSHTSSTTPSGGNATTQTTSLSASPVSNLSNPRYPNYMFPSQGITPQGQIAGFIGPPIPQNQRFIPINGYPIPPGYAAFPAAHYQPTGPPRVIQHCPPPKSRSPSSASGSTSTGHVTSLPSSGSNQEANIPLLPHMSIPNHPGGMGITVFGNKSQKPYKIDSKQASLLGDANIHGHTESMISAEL

Row | Binder | Kd [1] | also measured
1 | B1 | 1.5 nM | fold enhancement of binding relative to DART-1 [1]: > 2 fold
2 | B2 | 1.3 nM | 
3 | B3 | 5.7 nM | 
4 | B4 | 1.4 nM | 
5 | B5 | 1.2 nM | 
6 | B6 | 1.7 nM | 
7 | B7 | 4 nM | 
8 | B8 | 2.7 nM | 
9 | B9 | 1.5 nM | 
10 | B10 | 0.9 nM | 
11 | B11 | 1.3 nM | 
12 | B12 | 1.2 nM | 
13 | B13 | 4.8 nM | 
14 | B14 | 4.5 nM | 
15 | B15 | 1.2 nM | 
16 | B16 | 3.7 nM | 
17 | B17 | 6 nM | 
18 | B18 | 2.4 nM | 
19 | B19 | 3.7 nM | 
20 | B20 | 1.3 nM | 
21 | B21 |  | MR(%) (maximum response), redirected cell killing of HBL-2 cells (LDH release) [2]: 25.6%; MR(%) (maximum response), redirected cell killing of JIMT-1 cells (LDH release) [2]: 37.3%; MR(%) (maximum response), redirected cell killing of Jeko-1 cells (LDH release) [2]: 36.4%
22 | B22 | 1.2 nM | 
23 | B23 | 1.2 nM | MR(%) (maximum response), redirected cell killing of HBL-2 cells (LDH release) [2]: 27%; MR(%) (maximum response), redirected cell killing of JIMT-1 cells (LDH release) [2]: 40%; MR(%) (maximum response), redirected cell killing of Jeko-1 cells (LDH release) [2]: 38.2%
24 | B24 | 1.3 nM | 
25 | B25 | 4.3 nM | 
